Reference: patent publication US20230287145A1 (Hoffmann-La Roche, published 2023)

B1: TYRP1 TCB containing optimized anti-CD3 antibody clone P035.093 (bispecific antibody, human IgG1, kappa, L234A L235A)
heavy 1: not shown
heavy 2: QVQLVQSGAEVKKPGASVKVSCKASGFNIKDYFLHWVRQAPGQGLEWMGWINPDNGNTVYAQKFQGRVTMTADTSTSTVYMELSSLRSEDTAVYYCTRRDYTYEKAALDYWGQGTLVTVSSASTKGPSVFPLAPSSKSTSGGTAALGCLVEDYFPEPVTVSWNSGALTSGVHTFPAVLQSSGLYSLSSVVTVPSSSLGTQTYICNVNHKPSNTKVDEKVEPKSCDKTHTCPPCPAPEAAGGPSVFLFPPKPKDTLMISRTPEVTCVVVDVSHEDPEVKFNWYVDGVEVHNAKTKPREEQYNSTYRVVSVLTVLHQDWLNGKEYKCKVSNKALGAPIEKTISKAKGQPREPQVCTLPPSRDELTKNQVSLSCAVKGFYPSDIAVEWESNGQPENNYKTTPPVLDSDGSFFLVSKLTVDKSRWQQGNVFSCSVMHEALHNHYTQKSLSLSP
light 1: DIQMTQSPSSLSASVGDRVTITCRASGNIYNYLAWYQQKPGKVPKLLIYDAKTLADGVPSRFSGSGSGTDFTLTISSLQPEDVATYYCQHFWSLPFTFGQGTKLEIKRTVAAPSVFIFPPSDRKLKSGTASVVCLLNNFYPREAKVQWKVDNALQSGNSQESVTEQDSKDSTYSLSSTLTLSKADYEKHKVYACEVTHQGLSSPVTKSFNRGEC
light 2: EVQLLESGGGLVQPGGSLRLSCAASGFTFSSYAMNWVRQAPGKGLEWVSRIRSKYNNYATYYADSVKGRFTISRDDSKNTLYLQMNSLRAEDTAVYYCVRASNFPASYVSYFAYWGQGTLVTVSSASVAAPSVFIFPPSDEQLKSGTASVVCLLNNFYPREAKVQWKVDNALQSGNSQESVTEQDSKDSTYSLSSTLTLSKADYEKHKVYACEVTHQGLSSPVTKSFNRGEC
notes: 2+1 IgG CrossFab, inverted, with charge modifications; knob-into-hole, P329G L234A L235A; also called CD3opt (P035.093); CD3 P035.093

Assays:
[1] = target: B1; experiment: cell-based or functional assay
[2] = target: TYRP1 TCB with CD3 binder CH2527; experiment: cell-based or functional assay
[3] = target: T1, TCB with CD3 binding Fab P035.093 (analyte of Table 9); experiment: SPR, Biacore T200; anti-idiotypic IgG amine-coupled on CM5 chip, TCB as analyte; 1:1 Langmuir fit; single dilution series
T1 construct: not shown: Target-cell arm (TYRP1 or FOLR1 16D5), constant regions and Fc
Protocol: (§1) SPR experiments were performed on a Biacore T200 with HBS-EP+ as running buffer (0.01 M HEPES pH 7.4, 0.15 M NaCl, 0.005% Surfactant P20 (BR-1006-69, GE Healthcare)). Three anti-idiotypic antibodies were directly immobilized by amine coupling on a CMS chip (GE Healthcare). A three-fold dilution series of the different T cell bispecifics (TCBs) was passed 20 over the ligand at 30 μl/min for 180 sec to record the association phase. The dissociation phase was monitored for 600 s and triggered by switching from the sample solution to HBS-EP+. The chip surface was regenerated after every cycle using one injection of 10 mM glycine pH 2.1 for 60 sec, followed by two injections of 30 sec. Bulk refractive index differences were corrected for by subtracting the response obtained on the reference flow cell 1. The affinity constants were derived from the kinetic rate constants by fitting to a 1:1 Langmuir binding using the Biaeval 5 software (GE Healthcare). The measure was performed with a single dilution series.
(§2) SPR analysis was evaluated with masks as IgGs (immobilized on CM5 chip) and TCBs with different CD3 binding Fabs as analytes.

[4] = target: T2, TCB with CD3 binding Fab CH2527 (analyte of Table 9); experiment: as above
T2 construct: also called CD3 CH2527; not shown: Target-cell arm (TYRP1 or FOLR1 16D5), constant regions and Fc
Protocol: as §1, §2

FOLR1 CD3 TCB P035.093 [5] = target: T3, FOLR1 CD3 TCB P035.093; experiment: SPR, Biacore T200, 37 °C; FOLR1 CD3 TCB P035.093 captured on FOLR1-Fc (C1 chip), anti-idiotypic antibody as analyte; n=5; Stdev 140 s
T3 construct: Classical 2+1 TCB, knob-into-hole, PGLALA; the common light chain pairs with each of the Fabs; also called FOLR1 TCB CD3: P035.093
Protocol: (§3) Briefly, FOLR1-Fc was immobilized on a series s sensor chip C1 using standard amine coupling chemistry according to the manufacturer's instructions. […] The first flow cell was kept as mock surface. […] Dissociation was monitored for 300 s, the flow rate was set to 30 μl/min. The surface was regenerated by injecting 10 mM Glycine pH 2.0 for 60 s, followed by injecting 5 mM NaOH for 60 s at a flow rate of 5 μl/min. Bulk refractive index differences were corrected by subtracting the response obtained from flow cell one (mock surface) as well as by substracting buffer injections (double referencing). The derived curves were fitted to a 1:1 Langmuir binding model using the BIAevaluation software (GE Healthcare). […] All experiments were performed at 37° C. using HBS-N (10 mM HEPES, 150 mM NaCl pH 7.4, 0.05% Surfactant P-20).

FOLR1 CD3 TCB P035.093 [6] = target: T3, FOLR1 CD3 TCB P035.093; experiment: SPR, Biacore T200, 37 °C; FOLR1 CD3 TCB P035.093 captured on FOLR1-Fc (C1 chip), anti-idiotypic antibody 1.2-100 nM as analyte; 1:1 Langmuir fit; n=5; Stdev 0.4 nM
Protocol: as §3

[7] = target: T4, Human CD3ε stalk-Fc(knob)-Avi/CD3δ stalk-Fc(hole) (human); experiment: SPR, Biacore T200, 25 °C; monovalent IgG captured by anti-PG antibody on C1 chip, CD3ε/δ-Fc as analyte; triplicates
T4 construct: Heterodimeric Fc fusion; also called human CD3ε/δ; Human CD3 epsilon stalk-Fc(knob)-Avi
Protocol: (§4) Kinetic constants were derived using the Biacore T200 Evaluation Software (GE Healthcare Life Sciences), to fit rate equations for 1:1 Langmuir binding by numerical integration. The half-life (t_{1/2}) of the interaction was calculated using the formula t_{1/2}=ln 2/koff.
(§5) To analyze the interaction to CD3, IgG molecules were captured for 240 s at 50 nM with a flow rate of 5 μl/min. Human and cynomolgus CD3ε stalk-Fc(knob)-Avi/CD3δ-stalk-Fc(hole) were passed at a concentration of 0.061-250 nM with a flow rate of 30 μl/min through the flow cells for 300 s. The dissociation was monitored for 800 s.

[8] = target: T5, Cynomolgus CD3ε stalk-Fc(knob)-Avi/CD3δ stalk-Fc(hole) (cynomolgus); experiment: as above
T5 construct: Heterodimeric Fc fusion; also called cynomolgus CD3ε/δ
T5 sequence (chain, as listed by the source mutant limits assumed, chain 1 of 2): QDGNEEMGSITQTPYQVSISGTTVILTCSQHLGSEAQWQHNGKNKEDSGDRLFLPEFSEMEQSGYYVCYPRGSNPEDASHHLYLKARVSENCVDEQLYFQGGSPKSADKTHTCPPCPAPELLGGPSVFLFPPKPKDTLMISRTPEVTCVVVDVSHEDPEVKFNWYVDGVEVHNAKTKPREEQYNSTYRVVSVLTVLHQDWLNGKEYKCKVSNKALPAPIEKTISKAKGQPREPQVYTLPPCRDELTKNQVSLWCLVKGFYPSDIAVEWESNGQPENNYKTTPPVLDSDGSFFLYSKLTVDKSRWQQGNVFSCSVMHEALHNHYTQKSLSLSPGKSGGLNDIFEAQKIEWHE
T5 sequence (chain, as listed by the source mutant limits assumed, chain 2 of 2): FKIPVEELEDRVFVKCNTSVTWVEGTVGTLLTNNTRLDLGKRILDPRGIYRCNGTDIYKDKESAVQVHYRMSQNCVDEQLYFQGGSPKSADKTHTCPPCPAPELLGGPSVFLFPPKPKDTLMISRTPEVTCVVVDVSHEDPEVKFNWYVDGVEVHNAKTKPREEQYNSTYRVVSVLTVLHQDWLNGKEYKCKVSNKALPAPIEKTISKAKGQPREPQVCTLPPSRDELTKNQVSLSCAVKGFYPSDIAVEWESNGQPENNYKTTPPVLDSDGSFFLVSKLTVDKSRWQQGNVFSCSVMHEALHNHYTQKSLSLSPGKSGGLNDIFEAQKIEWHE
Protocol: as §4, §5

[9] = target: T4, Human CD3ε stalk-Fc(knob)-Avi/CD3δ …; experiment: SPR, Biacore T200, 25 °C; monovalent IgG captured by anti-PG antibody on C1 chip, CD3ε/δ-Fc as analyte; 1:1 Langmuir fit; triplicates
Protocol: as §4, §5

[10] = target: T5, Cynomolgus CD3ε stalk-Fc(knob)-Avi/CD3δ …; experiment: as above
Protocol: as §4, §5

[11] = target: T4, Human CD3ε stalk-Fc(knob)-Avi/CD3δ …; experiment: SPR, biotinylated human CD3ε/δ on SA chip, monovalent IgG; response normalised to anti-huIgG capture and referenced to the unstressed sample; after 2 weeks at pH 6.0/40 °C
Protocol: (§6) All SPR experiments were performed on a Biacore T200 instrument (GE Healthcare) at 25° C. with HBS-P+ (10 mM HEPES, 150 mM NaCl pH 7.4, 0.05% Surfactant P20) as running and dilution buffer. Biotinylated human CD3ε/δ (see Example 3, SEQ ID NOs 41 and 42) as well as biotinylated anti-huIgG (Capture Select, Thermo Scientific, #7103262100) were immobilized on a Series S Sensor Chip SA (GE Healthcare, #29104992), resulting in surface densities of at least 1000 resonance units (RU). Anti-CD3 antibodies with a concentration of 2 μg/ml were injected for 30 s at a flow rate of 5 μl/min, and dissociation was monitored for 120 s. The surface was regenerated by injecting 10 mM glycine pH 1.5 for 60 s. Bulk refractive index differences were corrected by subtracting blank injections and by subtracting the response obtained from a blank control flow cell. For evaluation, the binding response 5 seconds after injection end was taken. To normalize the binding signal, the CD3 binding was divided by the anti-huIgG response (the signal (RU) obtained upon capture of the CD3 antibody on the immobilized anti-huIgG antibody). The relative binding activity was calculated by referencing each temperature stressed sample to the corresponding, non-stressed sample.

[12] = target: T4, Human CD3ε stalk-Fc(knob)-Avi/CD3δ …; experiment: SPR, monovalent IgG format
[13] = target: T4, Human CD3ε stalk-Fc(knob)-Avi/CD3δ …; experiment: SPR, biotinylated human CD3ε/δ on SA chip, monovalent IgG; response normalised to anti-huIgG capture and referenced to the unstressed sample; after 2 weeks at pH 7.4/37 °C
Protocol: as §6

[14] = target: T4, Human CD3ε stalk-Fc(knob)-Avi/CD3δ …; experiment: SPR, biotinylated human CD3ε/δ on SA chip, TCB at 2 µg/ml; response normalised to anti-huIgG capture and referenced to the unstressed sample; after 2 weeks at pH 6.0/40 °C
Protocol: (§7) In order to assess the effect of the deamidation site removal and its effect on the stability of the antibodies, the optimized anti-CD3 antibodies (in TCB format) were incubated for 14 days at 37° C., pH 7.4 and at 40° C., pH 6 and further analyzed by SPR for their binding capability to human CD3ε/δ. Samples stored at −80° C. pH 6 were used as reference. The reference samples and the samples stressed at 40° C. were in 20 mM His, 140 mM NaCl, pH 6.0, and the samples stressed at 37° C. in PBS, pH 7.4, all at a concentration of 1.0 mg/ml. After the stress period (14 days) samples in PBS were dialyzed back to 20 mM His, 140 mM NaCl, pH 6.0 for further analysis.
as §6

[15] = target: T4, Human CD3ε stalk-Fc(knob)-Avi/CD3δ …; experiment: SPR, biotinylated human CD3ε/δ on SA chip, TCB at 2 µg/ml; response normalised to anti-huIgG capture and referenced to the unstressed sample; after 2 weeks at pH 7.4/37 °C
Protocol: as §7, §6

Row | Binder | t1/2 [7] [min] | t1/2 [8] [min] | Kd [9] [nM] | Kd [10] [nM] | binding activity [%] [11] [%] | koff [9] [s⁻¹] | kon [9] [M⁻¹ s⁻¹] | binding activity [%] [13] [%] | also measured
1 | Anti-idiotypic IgG 4.24.72 (parental chimeric antibody) (antibody, V domains shown, Tested as chimeric IgG; also called ID_4.24.72) VH: QIQLVQSGPELKKPGETVKISCKASGYTVTDYSMNWVKQAPGKCLKWMGWINTETGEPRYTDDFKGRFAFSLETSASTAYLQINNLKNEDSATYFCAREGDYDVFDYWGHGTTLKVSS VL: DIVLTQSPASLAVSLGQRATISCRASKSVSTSSYSYMHWYQQKPGQPPKLLIKYVSYLESGVPARFSGSGSGTDFTLNIHPVEEEDAATYYCQHSREFPYTFGCGTKLEIK |  |  |  |  |  |  |  |  | IC50 (read off the curve): reduction of Jurkat NFAT luminescence by anti-ID 4.24.72 IgG, TYRP1 TCB (CD3 variant P035.093) at EC90 [1]: ~1 nM; IC50 (read off the curve): reduction of Jurkat NFAT luminescence by anti-ID 4.24.72 IgG, TYRP1 TCB (CH2527) at EC90 [2]: ~1 nM; Kd [3]: 2.1 nM; koff [3]: 0.000309 s⁻¹; kon [3]: 148000 M⁻¹ s⁻¹; Kd [4]: 4.7 nM; koff [4]: 0.000675 s⁻¹; kon [4]: 141000 M⁻¹ s⁻¹; t1/2 diss (FOLR1 CD3 TCB P035.093 [5]): 7.43 min; Kd (FOLR1 CD3 TCB P035.093 [6]): 1.5 nM
2 | Anti-CD3 antibody clone P035.093 in monovalent human IgG1 format (antibody, V domains shown, Monovalent human IgG1 with crossed VH and VL domains; knob-into-hole; P329G L234A L235A; also called P035.093 (monovalent IgG)) VH: EVQLLESGGGLVQPGGSLRLSCAASGFTFSSYAMNWVRQAPGKGLEWVSRIRSKYNNYATYYADSVKGRFTISRDDSKNTLYLQMNSLRAEDTAVYYCVRASNFPASYVSYFAYWGQGTLVTVSS VL: QAVVTQEPSLTVSPGGTVTLTCGSSTGAVTTSNYANWVQEKPGQAFRGLIGGTNKRAPGTPARFSGSLLGGKAALTLSGAQPEDEAEYYCALWYSNLWVFGGGTKLTVL | 8.25 | 11.8 | 0.456 | 0.224 | 100 |  |  |  | 
3 | Anti-CD3 antibody clone P033.078 in monovalent human IgG1 format (antibody, V domains shown, knob-into-hole; P329G L234A L235A; also called P033.078 (monovalent IgG)) VH: EVQLLESGGGLVQPGGSLRLSCAASGFTFESYAMNWVRQAPGKGLEWVSRIRSKYNEYATYYADSVKGRFTISRDDSKNTLYLQMNSLRAEDTAVYYCVRASNFPSSFVSYFGYWGQGTLVTVSS VL: QAVVTQEPSLTVSPGGTVTLTCGSSTGAVTTSNYANWVQEKPGQAFRGLIGGTNKRAPGTPARFSGSLLGGKAALTLSGAQPEDEAEYYCALWYSNLWVFGGGTKLTVL | 8.69 | 11.1 | 0.771 | 0.403 | 98 | 0.00133 | 1.73e+06 | 95 | fold of binding half-life over CD3orig [12]: > 2 fold; koff [10]: 0.00104 s⁻¹; kon [10]: 2.6e+06 M⁻¹ s⁻¹
4 | CD3orig in monovalent human IgG1 format (antibody, V domains shown, Monovalent human IgG1 with crossed VH and VL domains; knob-into-hole; P329G L234A L235A; also called CD3orig (monovalent IgG)) VH: not shown VL: QAVVTQEPSLTVSPGGTVTLTCGSSTGAVTTSNYANWVQEKPGQAFRGLIGGTNKRAPGTPARFSGSLLGGKAALTLSGAQPEDEAEYYCALWYSNLWVFGGGTKLTVL | 3.98 |  | 4.94 |  | 97 | 0.0029 | 587000 | 60 | 
5 | B1 |  |  |  |  |  |  |  |  | binding activity [%] [14]: 97%; binding activity [%] [15]: 95%
